Experimental data as given in patent US20140274782A1, “AFFINITY REAGENTS AND METHODS FOR DETECTION, PURIFICATION, AND PROTEOMIC ANALYSIS OF METHYLATED PROTEINS” (The Board of Trustees of the Leland Stanford Junior …, priority 2013, published 2014).

T1: G9a and GLP (Homo sapiens, UniProt Q96KQ7+Q9H9B1)
T1 sequence (Q96KQ7 2-1210 limits assumed): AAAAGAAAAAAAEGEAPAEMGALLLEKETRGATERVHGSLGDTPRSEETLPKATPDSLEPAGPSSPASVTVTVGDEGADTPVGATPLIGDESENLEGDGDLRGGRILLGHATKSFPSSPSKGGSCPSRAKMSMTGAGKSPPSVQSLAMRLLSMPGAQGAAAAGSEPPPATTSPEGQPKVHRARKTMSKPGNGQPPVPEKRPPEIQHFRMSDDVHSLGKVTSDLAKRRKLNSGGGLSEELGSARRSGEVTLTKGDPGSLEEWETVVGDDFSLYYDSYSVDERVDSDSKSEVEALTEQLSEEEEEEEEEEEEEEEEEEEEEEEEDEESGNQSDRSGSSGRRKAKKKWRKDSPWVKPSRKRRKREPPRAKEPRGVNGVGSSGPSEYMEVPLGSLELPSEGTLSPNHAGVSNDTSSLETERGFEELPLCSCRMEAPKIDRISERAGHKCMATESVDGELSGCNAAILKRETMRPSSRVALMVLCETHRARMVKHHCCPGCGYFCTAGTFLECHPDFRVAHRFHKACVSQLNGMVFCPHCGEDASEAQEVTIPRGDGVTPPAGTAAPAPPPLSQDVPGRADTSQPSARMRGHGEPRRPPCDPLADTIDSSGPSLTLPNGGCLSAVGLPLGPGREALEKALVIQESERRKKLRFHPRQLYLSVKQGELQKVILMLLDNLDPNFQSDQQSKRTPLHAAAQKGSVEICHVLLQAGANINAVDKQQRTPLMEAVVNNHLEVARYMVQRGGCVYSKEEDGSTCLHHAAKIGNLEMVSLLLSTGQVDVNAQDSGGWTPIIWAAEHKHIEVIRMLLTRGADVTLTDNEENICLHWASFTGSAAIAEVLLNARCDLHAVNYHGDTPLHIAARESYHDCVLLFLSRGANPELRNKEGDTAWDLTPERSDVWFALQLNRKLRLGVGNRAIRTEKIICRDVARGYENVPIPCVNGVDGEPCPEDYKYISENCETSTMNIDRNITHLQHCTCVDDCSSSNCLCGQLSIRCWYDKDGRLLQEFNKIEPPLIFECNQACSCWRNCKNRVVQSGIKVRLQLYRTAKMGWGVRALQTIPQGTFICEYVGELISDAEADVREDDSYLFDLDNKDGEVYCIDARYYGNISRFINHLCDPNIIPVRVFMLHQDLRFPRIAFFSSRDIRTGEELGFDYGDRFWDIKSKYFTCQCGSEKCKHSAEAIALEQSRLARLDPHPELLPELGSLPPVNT
T1 sequence (Q9H9B1 2-1298 limits assumed): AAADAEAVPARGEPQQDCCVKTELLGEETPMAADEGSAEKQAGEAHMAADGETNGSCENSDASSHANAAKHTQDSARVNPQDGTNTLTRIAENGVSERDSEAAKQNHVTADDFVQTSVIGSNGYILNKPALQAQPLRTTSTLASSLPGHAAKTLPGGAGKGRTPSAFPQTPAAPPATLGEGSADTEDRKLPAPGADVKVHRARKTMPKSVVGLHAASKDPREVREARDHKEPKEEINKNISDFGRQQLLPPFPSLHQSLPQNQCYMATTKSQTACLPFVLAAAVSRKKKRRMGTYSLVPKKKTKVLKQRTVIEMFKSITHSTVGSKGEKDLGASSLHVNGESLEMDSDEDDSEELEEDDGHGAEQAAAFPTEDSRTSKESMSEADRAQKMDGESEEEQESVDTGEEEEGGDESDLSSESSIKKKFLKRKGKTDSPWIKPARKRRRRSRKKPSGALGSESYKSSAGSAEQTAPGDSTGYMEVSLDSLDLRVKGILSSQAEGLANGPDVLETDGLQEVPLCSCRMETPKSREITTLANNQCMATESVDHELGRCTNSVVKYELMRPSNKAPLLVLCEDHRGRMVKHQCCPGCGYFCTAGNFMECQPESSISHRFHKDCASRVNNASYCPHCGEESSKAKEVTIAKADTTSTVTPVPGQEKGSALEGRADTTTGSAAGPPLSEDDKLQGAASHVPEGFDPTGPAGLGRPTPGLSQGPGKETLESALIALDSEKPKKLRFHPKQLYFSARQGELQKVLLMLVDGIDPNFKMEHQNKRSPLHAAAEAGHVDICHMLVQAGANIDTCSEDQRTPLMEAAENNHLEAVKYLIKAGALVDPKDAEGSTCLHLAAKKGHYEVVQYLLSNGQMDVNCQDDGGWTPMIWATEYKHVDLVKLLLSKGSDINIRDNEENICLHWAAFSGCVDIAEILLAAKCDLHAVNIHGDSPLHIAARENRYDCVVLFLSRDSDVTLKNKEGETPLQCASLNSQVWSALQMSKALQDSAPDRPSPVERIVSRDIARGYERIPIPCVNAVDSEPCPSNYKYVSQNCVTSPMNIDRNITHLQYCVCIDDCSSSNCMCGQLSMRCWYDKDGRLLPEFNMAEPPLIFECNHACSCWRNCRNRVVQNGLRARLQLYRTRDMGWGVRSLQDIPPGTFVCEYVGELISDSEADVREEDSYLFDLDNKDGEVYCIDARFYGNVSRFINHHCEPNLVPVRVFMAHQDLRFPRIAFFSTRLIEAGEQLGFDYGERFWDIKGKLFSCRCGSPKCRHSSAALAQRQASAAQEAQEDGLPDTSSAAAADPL

B1: CKAP2 (protein, UniProt Q8WWK9 1-683, looked up)
Cytoskeleton-associated …: MSTPAVPQDLQLPPSQRAQSAFKEQRRQKLKEHLLRRKTLFAYKQENEMLSSSRDQRVVTSEDQVQEGTKVLKLKTKMADKENMKRPAESKNNTVVGKHCIPLKPSNELTNSTVVIDTHKPKDSNQTPHLLLTEDDPQSQHMTLSQAFHLKNNSKKKQMTTEKQKQDANMPKKPVLGSYRGQIVQSKINSFRKPLQVKDESSAATKKLSATIPKATKPQPVNTSSVTVKSNRSSNMTATTKFVSTTSQNTQLVRPPIRSHHSNTRDTVKQGISRTSANVTIRKGPHEKELLQSKTALSSVKTSSSQGIIRNKTLSRSIASEVIARPASLSNDKLMEKSEPVDQRRHTAGKAIVDSRSAQPKETSEERKARLSEWKAGKGRVLKRPPNSVVTQHEPAGQNEKPVGSFWTTMAEEDEQRLFTEKVNNTFSECLNLINEGCPKEDILVTLNDLIKNIPDAKKLVKYWICLALIEPITSPIENIIAIYEKAILAGAQPIEEMRHTIVDILTMKSQEKANLGENMEKSCASKEEVKEVSIEDTGVDVDPEKLEMESKLHRNLLFQDCEKEQDNKTKDPTHDVKTPNTETRTSCLIKYNVSTTPYLQSVKKKVQFDGTNSAFKELKFLTPVRRSRRLQEKTSKLPDMLKDHYPCVSSLEQLTELGRETDAFVCRPNAALCRVYYEADTT
B2: TRIM28 (protein, UniProt Q13263 2-835, looked up)
Transcription intermediary …: AASAAAASAAAASAASGSPGPGEGSAGGEKRSTAPSAAASASASAAASSPAGGGAEALELLEHCGVCRERLRPEREPRLLPCLHSACSACLGPAAPAAANSSGDGGAAGDGTVVDCPVCKQQCFSKDIVENYFMRDSGSKAATDAQDANQCCTSCEDNAPATSYCVECSEPLCETCVEAHQRVKYTKDHTVRSTGPAKSRDGERTVYCNVHKHEPLVLFCESCDTLTCRDCQLNAHKDHQYQFLEDAVRNQRKLLASLVKRLGDKHATLQKSTKEVRSSIRQVSDVQKRVQVDVKMAILQIMKELNKRGRVLVNDAQKVTEGQQERLERQHWTMTKIQKHQEHILRFASWALESDNNTALLLSKKLIYFQLHRALKMIVDPVEPHGEMKFQWDLNAWTKSAEAFGKIVAERPGTNSTGPAPMAPPRAPGPLSKQGSGSSQPMEVQEGYGFGSGDDPYSSAEPHVSGVKRSRSGEGEVSGLMRKVPRVSLERLDLDLTADSQPPVFKVFPGSTTEDYNLIVIERGAAAAATGQPGTAPAGTPGAPPLAGMAIVKEEETEAAIGAPPTATEGPETKPVLMALAEGPGAEGPRLASPSGSTSSGLEVVAPEGTSAPGGGPGTLDDSATICRVCQKPGDLVMCNQCEFCFHLDCHLPALQDVPGEEWSCSLCHVLPDLKEEDGSLSLDGADSTGVVAKLSPANQRKCERVLLALFCHEPCRPLHQLATDSTFSLDQPGGTLDLTLIRARLQEKLSPPYSSPQEFAQDVGRMFKQFNKLTEDKADVQSIIGLQRFFETRMNEAFGDTKFSAVLVEPPPMSLPGAGLSSQELSGGPGDGP
B3: TK1 (protein, UniProt P04183 2-234, looked up)
Thymidine kinase, cytosolic: SCINLPTVLPGSPSKTRGQIQVILGPMFSGKSTELMRRVRRFQIAQYKCLVIKYAKDTRYSSSFCTHDRNTMEALPACLLRDVAQEALGVAVIGIDEGQFFPDIVEFCEAMANAGKTVIVAALDGTFQRKPFGAILNLVPLAESVVKLTAVCMECFREAAYTKRLGTEKEVEVIGGADKYHSVCRLCYFKKASGQPAGPDNKENCPVPGKPGEAVAARKLFAPQQILQCSPAN
B4: TUBA1C (protein, UniProt Q9BQE3 1-449, looked up)
Tubulin alpha-1C chain: MRECISIHVGQAGVQIGNACWELYCLEHGIQPDGQMPSDKTIGGGDDSFNTFFSETGAGKHVPRAVFVDLEPTVIDEVRTGTYRQLFHPEQLITGKEDAANNYARGHYTIGKEIIDLVLDRIRKLADQCTGLQGFLVFHSFGGGTGSGFTSLLMERLSVDYGKKSKLEFSIYPAPQVSTAVVEPYNSILTTHTTLEHSDCAFMVDNEAIYDICRRNLDIERPTYTNLNRLISQIVSSITASLRFDGALNVDLTEFQTNLVPYPRIHFPLATYAPVISAEKAYHEQLTVAEITNACFEPANQMVKCDPRHGKYMACCLLYRGDVVPKDVNAAIATIKTKRTIQFVDWCPTGFKVGINYQPPTVVPGGDLAKVQRAVCMLSNTTAVAEAWARLDHKFDLMYAKRAFVHWYVGEGMEEGEFSEAREDMAALEKDYEEVGADSADGEDEGEEY
B5: NOSIP (protein, UniProt Q9Y314 1-301, looked up)
Nitric oxide …: MTRHGKNCTAGAVYTYHEKKKDTAASGYGTQNIRLSRDAVKDFDCCCLSLQPCHDPVVTPDGYLYEREAILEYILHQKKEIARQMKAYEKQRGTRREEQKELQRAASQDHVRGFLEKESAIVSRPLNPFTAKALSGTSPDDVQPGPSVGPPSKDKDKVLPSFWIPSLTPEAKATKLEKPSRTVTCPMSGKPLRMSDLTPVHFTPLDSSVDRVGLITRSERYVCAVTRDSLSNATPCAVLRPSGAVVTLECVEKLIRKDMVDPVTGDKLTDRDIIVLQRGGTGFAGSGVKLQAEKSRPVMQA

target: T1, G9a and GLP; test: Triple SILAC pull-down after UNC0638 treatment of 293T cells, DMSO/UNC0638 ratio of protein captured by 3×MBT; format: cell-based; set-up: cells were treated for 24 hours with UNC0638 at 2.5 μM or DMSO vehicle control; endogenous in cells; host or cells: HEK 293T; details: SILAC ratio DMSO relative to UNC0638, pull-down with 3xMBT; UNC0638 in heavy SILAC media; all values in log base 2;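 note: mass spectrometry (Q-Exactive) SILAC quantitation, DMSO/UNC0638 ratio computed after subtracting 3×MBTD355N mutant pull-down background, only proteins with at least twofold 3×MBT over mutant signal considered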

Relative to UNC0638 UNC Heavy [log base 2] | Molecule
−0.12 | B1
0.01 | B2
0.63 | B3
−0.83 | B4
0.03 | B5

same assay, conditions: SILAC ratio DMSO relative to UNC0638, pull-down with 3xMBT; UNC0638 in light SILAC media; all values in log base 2

Relative to UNC0638 UNC Light [log base 2] | Molecule
0.05 | B1
0.10 | B2
−0.50 | B3
0.93 | B4
−0.11 | B5

same assay, conditions: average of UNC Light and UNC Heavy experiments; all values in log base 2

Relative to UNC0638 Average [log base 2] | Molecule
−0.03 | B1
0.06 | B2
0.07 | B3
0.05 | B4
−0.04 | B5

tested on: 3×MBT domain of L3MBTL1; test: Triple SILAC pull-down, 3xMBT/3xMBTD355N ratio (cytoplasmic, nuclear and chromatin fractions of 293T cells); format: binding, human; details: SILAC ratio 3xMBT vs 3xMBTD355N pull-down, 293T cells; experiment with UNC0638 in heavy SILAC media; all values in log base 2;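 note: proteins quantified with MaxQuant, requiring at least two unique peptides and quantification in both label directions, normalized to the mean of proteins from a digested loading control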
Protocol: For stable isotope labeling by amino acids in cell culture (SILAC) experiments HEK 293T cells were grown for at least six doublings in DMEM for SILAC supplemented with 10% dialyzed fetal bovine serum (FBS), 230 mg/L L-proline and either 100 mg/L each of L-lysine and L-arginine (“light” medium), D4-L-lysine and ^13C6-L-arginine (“medium” media), or ^13C6^15N2-L-lysine and ^13C6^15N4-L-arginine (Thermo Scientific). Heavy methyl labeling used DMEM without L-Methionine or L-Cysteine supplemented with D3^13C-L-Methionine (Sigma), L-Cysteine (Sigma) and 10% dialyzed FBS.
For UNC0638 treatments cells were treated for 24 hours with UNC0638 at 2.5 μM or DMSO vehicle control. One experiment treated cells in light media with UNC0638, the other treated cells in heavy media. Both experiments included cells in medium media treated with DMSO for negative control pull-down with 3×MBTD355N.
UNC0638 treatment experiments used a Q-Exactive mass spectrometer (ThermoFisher Scientific). A 25 cm HPLC column with 3 μm Reliasil (Orochem) was used to separate peptides over a 4 hour gradient from 0 to 75% acetonitrile. Ions were generated using a custom nanospray source flowing at 250 nL/minute. Mass spectrometry settings were 70,000 MS1 resolution, data dependent selection of up to 20 precursor ions per cycle, dynamic exclusion of 30 seconds and isolation window of 2 m/z. The nuclear fraction from the experiment using UNC0638 on cells in heavy media was additionally analyzed by 2D HPLC-MS/MS as described earlier.
Peptides were identified and quantified using MaxQuant version 1.2.2.5 (Cox and Mann, supra) with the following changes to default settings: mono- and di-methylation of lysine, and oxidation of methionine, and N-terminal acetylation as variable modifications, disabled “I=L”, up to three modifications per peptide, one missed cleavage, maximum charge of 5. Protein and peptide FDR were set to 1%, and proteins were filtered post-hoc for at least two unique peptides. Proteins were excluded from an experiment if they were not quantified in both labeling directions. Because FDR is unreliable for small numbers of peptides the modification site FDR was set to 10% and all methylated peptides were manually verified. […] Quantitative protein data was normalized to the mean value among proteins identified by analyzing 50 ng of digested loading control.
For UNC0638 experiments the treated vs. untreated ratio was determined by subtracting the value from 3×MBTD355N prior to dividing values from the light and heavy channels. Only proteins showing a two-fold signal to background ratio (3×MBT/3×MBTD355N) were evaluated as potential G9a/GLP substrates.

Molecule | 3xMBT/D355N UNC Heavy [log base 2]
B1 | −1.81
B2 | 1.05
B3 | 2.89
B4 | 0.42
B5 | 1.54

same assay, conditions: SILAC ratio 3xMBT vs 3xMBTD355N pull-down, 293T cells; experiment with UNC0638 in light SILAC media; all values in log base 2

Molecule | 3xMBT/D355N UNC Light [log base 2]
B1 | −1.33
B2 | 1.28
B3 | 2.36
B4 | 1.45
B5 | 2.28
